Laboratory results from PMC9578707, “Identification of orphan ligand-receptor relationships using a cell-based CRISPRa enrichment screening platform” (eLife, 2022).

Assays:
[1] = molecular target: RNF167-ECD (transmembrane PA-TM-RING E3 ligase RNF167, extracellular domain) (human) (UniProt Q9H6Y7); assay: SPR; Biacore T100; biotinylated ligand captured on a streptavidin (SA) Series S chip (~100-200 RU); non-biotinylated analyte in twofold dilutions in HBS-P+; 60 s injection at 30 ul/min, 240 s dissociation; regeneration 2 x 10 sec 2M MgCl2; KD from the fit at equilibrium (steady state)
human PTPRU-ECD [2] = molecular target: T1, human PTPRU-ECD (human, UniProt Q92729 19-749, biotin where captured on the streptavidin chip); assay: SPR
T1 chain: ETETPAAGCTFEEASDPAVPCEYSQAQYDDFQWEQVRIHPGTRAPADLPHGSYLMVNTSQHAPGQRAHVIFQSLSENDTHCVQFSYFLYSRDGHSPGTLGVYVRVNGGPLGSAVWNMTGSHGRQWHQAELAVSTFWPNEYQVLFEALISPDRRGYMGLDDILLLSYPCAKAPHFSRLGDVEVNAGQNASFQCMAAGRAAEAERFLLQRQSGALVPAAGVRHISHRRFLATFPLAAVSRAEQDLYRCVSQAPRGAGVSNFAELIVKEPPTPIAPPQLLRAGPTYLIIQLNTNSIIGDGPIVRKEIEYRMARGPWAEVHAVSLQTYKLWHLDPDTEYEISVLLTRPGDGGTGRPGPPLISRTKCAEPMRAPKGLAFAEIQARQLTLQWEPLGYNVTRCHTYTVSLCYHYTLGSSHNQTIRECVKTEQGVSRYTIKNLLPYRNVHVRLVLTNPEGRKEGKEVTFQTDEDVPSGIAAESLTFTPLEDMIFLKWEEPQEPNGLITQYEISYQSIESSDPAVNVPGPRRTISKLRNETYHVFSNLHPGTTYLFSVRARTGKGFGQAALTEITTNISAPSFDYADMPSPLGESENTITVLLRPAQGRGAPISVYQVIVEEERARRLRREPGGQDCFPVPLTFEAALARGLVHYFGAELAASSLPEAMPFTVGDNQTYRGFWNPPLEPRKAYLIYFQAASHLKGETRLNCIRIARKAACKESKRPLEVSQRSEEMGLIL

human PTPRU-ECD [3] = molecular target: T2, human PTPRU-ECD (human, UniProt Q92729 19-749, biotin where captured on the streptavidin chip); assay: SPR; Biacore T100; biotinylated receptor ECD or hit protein captured on a streptavidin chip (~100-200 RU), non-biotinylated secreted ligand as analyte in twofold dilutions; HBS-P+ buffer; 1:1 Langmuir model or equilibrium fit; details: both partners purified
T2 construct: PTPRU, human, extracellular domain; construct of the ECD is not described; source: Expi293F, purified (Ni-NTA, SEC)
T2 sequence (looked up): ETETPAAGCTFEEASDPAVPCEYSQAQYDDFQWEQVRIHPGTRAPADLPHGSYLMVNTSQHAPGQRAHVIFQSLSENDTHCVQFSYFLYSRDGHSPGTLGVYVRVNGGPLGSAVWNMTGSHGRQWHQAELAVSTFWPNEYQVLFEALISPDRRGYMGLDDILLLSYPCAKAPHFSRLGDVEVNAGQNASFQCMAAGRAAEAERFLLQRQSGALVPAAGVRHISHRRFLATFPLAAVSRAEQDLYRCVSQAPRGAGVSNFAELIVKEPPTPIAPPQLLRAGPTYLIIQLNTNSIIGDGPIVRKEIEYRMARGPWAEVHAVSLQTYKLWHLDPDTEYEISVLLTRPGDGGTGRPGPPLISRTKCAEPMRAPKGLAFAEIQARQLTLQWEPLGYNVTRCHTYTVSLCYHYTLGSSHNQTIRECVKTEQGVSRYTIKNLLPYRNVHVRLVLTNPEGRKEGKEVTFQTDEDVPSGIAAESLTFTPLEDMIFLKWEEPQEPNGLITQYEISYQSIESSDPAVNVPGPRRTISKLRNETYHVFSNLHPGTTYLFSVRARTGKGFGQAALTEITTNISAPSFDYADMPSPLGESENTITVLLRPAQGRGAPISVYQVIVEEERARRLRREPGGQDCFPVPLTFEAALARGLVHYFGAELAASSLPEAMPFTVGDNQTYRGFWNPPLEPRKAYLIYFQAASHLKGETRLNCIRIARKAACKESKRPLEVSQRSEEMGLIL

PTPRD ECD = molecular target: T3, PTPRD ECD (human, UniProt P23468 21-1265, biotin where captured on the streptavidin chip); assay: SPR; Biacore T100; biotinylated secreted ligand (OMG, PTN or MDK) captured on a streptavidin chip, receptor ECD as analyte; HBS-P+ buffer; details: both partners purified
T3 construct: PTPRD, human, extracellular domain; construct of the ECD is not described; source: Expi293F, purified (Ni-NTA, SEC)

PTPRS ECD = molecular target: T4, PTPRS ECD (human, UniProt Q13332 30-1282, biotin where captured on the streptavidin chip); assay: as above; details: both partners purified
T4 construct: PTPRS, human, extracellular domain; construct of the ECD is not described; source: Expi293F, purified (Ni-NTA, SEC)
T4 sequence (looked up): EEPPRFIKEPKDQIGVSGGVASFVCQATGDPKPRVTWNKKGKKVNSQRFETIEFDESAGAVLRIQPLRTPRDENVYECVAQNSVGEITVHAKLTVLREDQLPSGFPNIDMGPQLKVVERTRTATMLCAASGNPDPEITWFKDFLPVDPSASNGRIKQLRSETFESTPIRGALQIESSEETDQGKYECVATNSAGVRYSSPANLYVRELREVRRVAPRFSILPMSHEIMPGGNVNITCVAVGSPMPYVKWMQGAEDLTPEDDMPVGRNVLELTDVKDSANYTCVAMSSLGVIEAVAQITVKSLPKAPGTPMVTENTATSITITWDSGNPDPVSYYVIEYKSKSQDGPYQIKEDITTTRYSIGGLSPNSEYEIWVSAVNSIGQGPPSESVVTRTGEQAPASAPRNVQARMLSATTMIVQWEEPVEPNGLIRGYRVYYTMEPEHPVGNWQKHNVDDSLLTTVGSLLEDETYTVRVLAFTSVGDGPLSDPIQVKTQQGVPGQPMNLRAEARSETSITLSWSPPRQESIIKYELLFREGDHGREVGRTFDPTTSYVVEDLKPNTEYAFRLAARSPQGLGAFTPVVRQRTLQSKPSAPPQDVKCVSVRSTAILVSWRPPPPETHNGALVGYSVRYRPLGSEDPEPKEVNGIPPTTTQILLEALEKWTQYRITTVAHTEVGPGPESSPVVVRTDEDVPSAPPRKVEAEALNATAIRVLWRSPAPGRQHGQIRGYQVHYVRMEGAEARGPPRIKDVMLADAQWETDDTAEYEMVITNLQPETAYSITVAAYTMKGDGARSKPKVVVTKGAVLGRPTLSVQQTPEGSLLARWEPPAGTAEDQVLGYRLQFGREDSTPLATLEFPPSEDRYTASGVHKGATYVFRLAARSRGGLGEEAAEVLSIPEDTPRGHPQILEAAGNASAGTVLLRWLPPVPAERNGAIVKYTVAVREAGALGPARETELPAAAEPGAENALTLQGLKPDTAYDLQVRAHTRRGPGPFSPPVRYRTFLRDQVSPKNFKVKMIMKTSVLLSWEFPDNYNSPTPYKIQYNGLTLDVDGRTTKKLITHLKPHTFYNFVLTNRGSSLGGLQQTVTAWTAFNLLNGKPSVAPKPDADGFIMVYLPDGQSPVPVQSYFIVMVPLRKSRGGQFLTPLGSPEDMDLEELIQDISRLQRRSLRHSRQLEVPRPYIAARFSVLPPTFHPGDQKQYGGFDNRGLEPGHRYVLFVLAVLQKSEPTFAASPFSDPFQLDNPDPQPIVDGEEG

PTPRF ECD = molecular target: T5, PTPRF ECD (human, UniProt P10586 30-1263, biotin where captured on the streptavidin chip); assay: as above; details: both partners purified
T5 construct: PTPRF, human, extracellular domain; construct of the ECD is not described; also called PRPRF; source: Expi293F, purified (Ni-NTA, SEC)

Molecule	Kd [1] [nM]	koff (human PTPRU-ECD [2]) [s⁻¹]	Kd (human PTPRU-ECD [3]) [nM]	binding result (PTPRD ECD)	binding result (PTPRS ECD)	binding result (PTPRF ECD)
TAFA-2 (FAM19A2; chemokine-like family member 2) (from UniProt Q8N3H0 31-131) (ligand)	314000	–	–	–	–	–
oligodendrocyte-myelin glycoprotein (ligand, human, UniProt P23515 25-417, looked up, biotin (biotinylated in vitro with BirA) where used on beads or captured on the chip, oligodendrocyte-myelin glycoprotein, human; also called OMG; source: Expi293F, purified (Ni-NTA, SEC); not shown: AviTag, C-terminal, kept) ICPLQCICTERHRHVDCSGRNLSTLPSGLQENIIHLNLSYNHFTDLHNQLTQYTNLRTLDISNNRLESLPAHLPRSLWNMSAANNNIKLLDKSDTAYQWNLKYLDVSKNMLEKVVLIKNTLRSLEVLNLSSNKLWTVPTNMPSKLHIVDLSNNSLTQILPGTLINLTNLTHLYLHNNKFTFIPDQSFDQLFQLQEITLYNNRWSCDHKQNITYLLKWMMETKAHVIGTPCSTQISSLKEHNMYPTPSGFTSSLFTVSGMQTVDTINSLSVVTQPKVTKIPKQYRTKETTFGATLSKDTTFTSTDKAFVPYPEDTSTETINSHEAAAATLTIHLQDGMVTNTSLTSSTKSSPTPMTLSITSGMPNNFSEMPQQSTTLNLWREETTTNVKTPLPS	–	0.00042	~70	binds	binds	binds
Osteocrin (ligand, human, UniProt P61366 28-133, looked up, biotin (biotinylated in vitro with BirA) where used on beads, Osteocrin, human; also called OSTN; Musclin; source: Expi293F, purified (Ni-NTA, SEC); not shown: AviTag, C-terminal, kept) VDVTTTEAFDSGVIDVQSTPTVREEKSATDLTAKLLLLDELVSLENDVIETKKKRSFSGFGSPLDRLSAGSVDHKGKQRKVVDHPKRRFGIPMDRIGRNRLSNSRG	–	0.0036	~12	–	–	–
